B1: N-terminal region of CHIKV-43, 473ITFGDFNDGEIESLSSEL490 (motif 1 and α1) (peptide)
peptide: ITFGDFNDGEIESLSSEL
notes: also called N-terminus (motif 1 and α1) of CHIKV-43
B2: C-terminal region of CHIKV-43, 491LTFGDFLPGEVDDLTDSD508 (motif 2 and α2) (peptide)
peptide: LTFGDFLPGEVDDLTDSD
notes: also called C-terminus (motif 2 and α2) of CHIKV-43

Target: T1, nuclear translocation factor 2-like (NTF2L) domain of human G3BP1 (human, UniProt Q13283-1 1-138)
T1 construct: three extra residues Gly-Ala-Ser left at the N-terminus after TEV cleavage of the 6xHis tag; complete chains (1-138) are C, G, N and R; also called G3BP1-NTF2L domain; source: E. coli BL21 (DE3), purified (Ni-NTA, TEV cleavage, second Ni-NTA, SEC); not shown: His6, N-terminal, cleaved
Assay: ITC; peptide injected into NTF2L in the cell, 20°C, 20 mM HEPES, 150 mM NaCl, pH 7.5
Settings: both partners purified

T1 sequence (Q13283 other isoform, or with tags, fused parts or gaps): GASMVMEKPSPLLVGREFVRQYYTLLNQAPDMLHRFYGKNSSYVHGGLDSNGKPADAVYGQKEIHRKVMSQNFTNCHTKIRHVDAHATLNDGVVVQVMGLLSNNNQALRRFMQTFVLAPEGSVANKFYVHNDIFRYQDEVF

Binder | fold reduction of binding affinity against CHIKV-43 with NTF2L | stoichiometry N | Kd
ITFGDFNDGEIESLSSELLTFGDFLP [CHIKV-26 peptide (residues Ile473 to Pro498 of CHIKV nsP3, without the α2 region)] | ~100 fold | 1 CHIKV-26 per NTF2L (1:1) | 
B1 |  |  | 3400 ± 700 nM
B2 |  |  | 2200 ± 500 nM

Source: paper PMC12077208, “Cryo-EM reveals a double oligomeric ring scaffold of the CHIKV nsP3 peptide in complex with the NTF2L domain of host G3BP1” (mBio, 2025)
